Measurements reported in the supplement of paper PMC10567573.

B1: CHIT1 (parent)
chain: CSWKGATKQRIQDQKVPYIFRDNQ

Variants of: B1
Assay: protein stability index of a GFP-peptide fusion (GPS, HEK-293T) (PSI 1-6); higher = more stable
Details: c terminus: a fixed tail appended
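Also: lentivirally expressed fusions sorted by FACS into six bins by GFP to DsRed ratio, PSI derived from sequencing read proportions per bin multiplied by bin number.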

Going from CSWKHATKQRIQDQKVPYIFRDNQ [G5H] to CSWKIATKQRIQDQKVPYIFRDNQ [G5I], the protein stability index falls from 2.59 to 2.11.

First: CSWKKATKQRIQDQKVPYIFRDNQ [G5K]
Second: CSWKLATKQRIQDQKVPYIFRDNQ [G5L]
The protein stability index of the first is higher: 2.79 for the first, 2.77 for the second.

First: CSWKMATKQRIQDQKVPYIFRDNQ [G5M]
Second: CSWKNATKQRIQDQKVPYIFRDNQ [G5N]
The protein stability index of the first is lower: 2.02 for the first, 2.69 for the second.

CSWKPATKQRIQDQKVPYIFRDNQ [G5P] and CSWKRATKQRIQDQKVPYIFRDNQ [G5R] are the same in protein stability index: 2.38 for the first, 2.38 for the second.

Compared with CSWKSATKQRIQDQKVPYIFRDNQ [G5S], CSWKTATKQRIQDQKVPYIFRDNQ [G5T] is lower in protein stability index: 3.28 for the first, 2.53 for the second.

Going from CSWKVATKQRIQDQKVPYIFRDNQ [G5V] to CSWKWATKQRIQDQKVPYIFRDNQ [G5W], the protein stability index rises from 2.32 to 3.45.

Compared with CSWKYATKQRIQDQKVPYIFRDNQ [G5Y], CSWKGCTKQRIQDQKVPYIFRDNQ [A6C] is lower in protein stability index: 2.12 for the first, 2.06 for the second.

First: CSWKGDTKQRIQDQKVPYIFRDNQ [A6D]
Second: CSWKGETKQRIQDQKVPYIFRDNQ [A6E]
The protein stability index of the first is higher: 3.47 for the first, 2.79 for the second.

Going from CSWKGFTKQRIQDQKVPYIFRDNQ [A6F] to CSWKGGTKQRIQDQKVPYIFRDNQ [A6G], the protein stability index falls from 2.14 to 1.82.

Going from CSWKGHTKQRIQDQKVPYIFRDNQ [A6H] to CSWKGITKQRIQDQKVPYIFRDNQ [A6I], the protein stability index falls from 2.51 to 2.32.

Going from CSWKGKTKQRIQDQKVPYIFRDNQ [A6K] to CSWKGLTKQRIQDQKVPYIFRDNQ [A6L], the protein stability index rises from 2.23 to 2.43.

Compared with CSWKGMTKQRIQDQKVPYIFRDNQ [A6M], CSWKGNTKQRIQDQKVPYIFRDNQ [A6N] is higher in protein stability index: 2.64 for the first, 2.83 for the second.

Going from CSWKGPTKQRIQDQKVPYIFRDNQ [A6P] to CSWKGQTKQRIQDQKVPYIFRDNQ [A6Q], the protein stability index falls from 3.05 to 2.54.

Compared with CSWKGRTKQRIQDQKVPYIFRDNQ [A6R], CSWKGSTKQRIQDQKVPYIFRDNQ [A6S] is lower in protein stability index: 2.73 for the first, 2.4 for the second.

Going from CSWKGTTKQRIQDQKVPYIFRDNQ [A6T] to CSWKGVTKQRIQDQKVPYIFRDNQ [A6V], the protein stability index falls from 2.27 to 2.25.

Compared with CSWKGWTKQRIQDQKVPYIFRDNQ [A6W], CSWKGYTKQRIQDQKVPYIFRDNQ [A6Y] is lower in protein stability index: 4.23 for the first, 2.31 for the second.

Compared with CSWKGAAKQRIQDQKVPYIFRDNQ [T7A], CSWKGACKQRIQDQKVPYIFRDNQ [T7C] is lower in protein stability index: 2.51 for the first, 2.29 for the second.

Going from CSWKGADKQRIQDQKVPYIFRDNQ [T7D] to CSWKGAEKQRIQDQKVPYIFRDNQ [T7E], the protein stability index rises from 3.29 to 3.41.

Going from CSWKGAFKQRIQDQKVPYIFRDNQ [T7F] to CSWKGAGKQRIQDQKVPYIFRDNQ [T7G], the protein stability index rises from 2.68 to 2.77.

Compared with CSWKGAHKQRIQDQKVPYIFRDNQ [T7H], CSWKGAIKQRIQDQKVPYIFRDNQ [T7I] is lower in protein stability index: 2.91 for the first, 2.3 for the second.

Going from CSWKGAKKQRIQDQKVPYIFRDNQ [T7K] to CSWKGALKQRIQDQKVPYIFRDNQ [T7L], the protein stability index rises from 2.4 to 2.52.

Compared with CSWKGAMKQRIQDQKVPYIFRDNQ [T7M], CSWKGANKQRIQDQKVPYIFRDNQ [T7N] is higher in protein stability index: 2.28 for the first, 2.62 for the second.

First: CSWKGAPKQRIQDQKVPYIFRDNQ [T7P]
Second: CSWKGAQKQRIQDQKVPYIFRDNQ [T7Q]
The protein stability index of the first is lower: 2.74 for the first, 2.89 for the second.

Going from CSWKGARKQRIQDQKVPYIFRDNQ [T7R] to CSWKGASKQRIQDQKVPYIFRDNQ [T7S], the protein stability index rises from 2.75 to 3.32.

Compared with CSWKGAVKQRIQDQKVPYIFRDNQ [T7V], CSWKGAWKQRIQDQKVPYIFRDNQ [T7W] is lower in protein stability index: 2.42 for the first, 1.12 for the second.

Compared with CSWKGAYKQRIQDQKVPYIFRDNQ [T7Y], CSWKGATAQRIQDQKVPYIFRDNQ [K8A] is lower in protein stability index: 3.94 for the first, 2.58 for the second.

Compared with CSWKGATCQRIQDQKVPYIFRDNQ [K8C], CSWKGATDQRIQDQKVPYIFRDNQ [K8D] is higher in protein stability index: 1.76 for the first, 2.59 for the second.

Compared with CSWKGATEQRIQDQKVPYIFRDNQ [K8E], CSWKGATFQRIQDQKVPYIFRDNQ [K8F] is lower in protein stability index: 3.19 for the first, 2.21 for the second.

First: CSWKGATGQRIQDQKVPYIFRDNQ [K8G]
Second: CSWKGATHQRIQDQKVPYIFRDNQ [K8H]
The protein stability index of the first is higher: 2.95 for the first, 2.53 for the second.

Compared with CSWKGATIQRIQDQKVPYIFRDNQ [K8I], CSWKGATLQRIQDQKVPYIFRDNQ [K8L] is higher in protein stability index: 2.15 for the first, 2.77 for the second.

First: CSWKGATMQRIQDQKVPYIFRDNQ [K8M]
Second: CSWKGATNQRIQDQKVPYIFRDNQ [K8N]
The protein stability index of the first is lower: 2.01 for the first, 2.54 for the second.

Compared with CSWKGATPQRIQDQKVPYIFRDNQ [K8P], CSWKGATQQRIQDQKVPYIFRDNQ [K8Q] is lower in protein stability index: 2.23 for the first, 2.12 for the second.

Compared with CSWKGATRQRIQDQKVPYIFRDNQ [K8R], CSWKGATSQRIQDQKVPYIFRDNQ [K8S] is lower in protein stability index: 2.81 for the first, 2.44 for the second.

Going from CSWKGATTQRIQDQKVPYIFRDNQ [K8T] to CSWKGATVQRIQDQKVPYIFRDNQ [K8V], the protein stability index rises from 2.07 to 3.23.

Going from CSWKGATWQRIQDQKVPYIFRDNQ [K8W] to CSWKGATYQRIQDQKVPYIFRDNQ [K8Y], the protein stability index rises from 2.03 to 2.4.

Compared with CSWKGATKARIQDQKVPYIFRDNQ [Q9A], CSWKGATKCRIQDQKVPYIFRDNQ [Q9C] is lower in protein stability index: 2.5 for the first, 1.07 for the second.

Compared with CSWKGATKDRIQDQKVPYIFRDNQ [Q9D], CSWKGATKERIQDQKVPYIFRDNQ [Q9E] is lower in protein stability index: 2.58 for the first, 2.42 for the second.

Going from CSWKGATKFRIQDQKVPYIFRDNQ [Q9F] to CSWKGATKGRIQDQKVPYIFRDNQ [Q9G], the protein stability index rises from 1.94 to 2.88.

Going from CSWKGATKHRIQDQKVPYIFRDNQ [Q9H] to CSWKGATKIRIQDQKVPYIFRDNQ [Q9I], the protein stability index rises from 2.66 to 2.92.

First: CSWKGATKKRIQDQKVPYIFRDNQ [Q9K]
Second: CSWKGATKLRIQDQKVPYIFRDNQ [Q9L]
The protein stability index of the first is higher: 2.44 for the first, 1.78 for the second.

Going from CSWKGATKMRIQDQKVPYIFRDNQ [Q9M] to CSWKGATKNRIQDQKVPYIFRDNQ [Q9N], the protein stability index rises from 2.29 to 2.62.

Going from CSWKGATKPRIQDQKVPYIFRDNQ [Q9P] to CSWKGATKRRIQDQKVPYIFRDNQ [Q9R], the protein stability index rises from 2.25 to 2.37.

Going from CSWKGATKSRIQDQKVPYIFRDNQ [Q9S] to CSWKGATKTRIQDQKVPYIFRDNQ [Q9T], the protein stability index rises from 2.57 to 2.8.

First: CSWKGATKVRIQDQKVPYIFRDNQ [Q9V]
Second: CSWKGATKWRIQDQKVPYIFRDNQ [Q9W]
The protein stability index of the first is higher: 2.44 for the first, 1.39 for the second.

Going from CSWKGATKYRIQDQKVPYIFRDNQ [Q9Y] to CSWKGATKQAIQDQKVPYIFRDNQ [R10A], the protein stability index rises from 2.17 to 3.57.

First: CSWKGATKQCIQDQKVPYIFRDNQ [R10C]
Second: CSWKGATKQDIQDQKVPYIFRDNQ [R10D]
The protein stability index of the first is lower: 2.63 for the first, 2.71 for the second.

Going from CSWKGATKQEIQDQKVPYIFRDNQ [R10E] to CSWKGATKQFIQDQKVPYIFRDNQ [R10F], the protein stability index falls from 3.87 to 2.5.
